Paper PMC9882641, “Utilizing genetic code expansion to modify N-TIMP2 specificity towards MMP-2, MMP-9, and MMP-14” (Research Square, 2023)

Assays:
Experiment in all cases: enzyme inhibition assay (chromogenic substrate, fit to Morrison's tight binding equation); MMP-2ACT (0.6 nM), MMP-9CAT (3 nM) or MMP-14CAT (1 nM) incubated with 0-25 nM N-TIMP2 variant for 1 h at 37 C in 50 mM HEPES, 10 mM CaCl2, 0.05% Brij-35, 1 mM DTNB, pH 7.5; then 100 uM chromogenic substrate, absorbance at 412 nm; three independent experiments
Conditions in all cases: both partners purified
[1] = target: T1, activated MMP-2 (MMP-2ACT) (human, UniProt P08253 110-660)
T1 sequence (looked up): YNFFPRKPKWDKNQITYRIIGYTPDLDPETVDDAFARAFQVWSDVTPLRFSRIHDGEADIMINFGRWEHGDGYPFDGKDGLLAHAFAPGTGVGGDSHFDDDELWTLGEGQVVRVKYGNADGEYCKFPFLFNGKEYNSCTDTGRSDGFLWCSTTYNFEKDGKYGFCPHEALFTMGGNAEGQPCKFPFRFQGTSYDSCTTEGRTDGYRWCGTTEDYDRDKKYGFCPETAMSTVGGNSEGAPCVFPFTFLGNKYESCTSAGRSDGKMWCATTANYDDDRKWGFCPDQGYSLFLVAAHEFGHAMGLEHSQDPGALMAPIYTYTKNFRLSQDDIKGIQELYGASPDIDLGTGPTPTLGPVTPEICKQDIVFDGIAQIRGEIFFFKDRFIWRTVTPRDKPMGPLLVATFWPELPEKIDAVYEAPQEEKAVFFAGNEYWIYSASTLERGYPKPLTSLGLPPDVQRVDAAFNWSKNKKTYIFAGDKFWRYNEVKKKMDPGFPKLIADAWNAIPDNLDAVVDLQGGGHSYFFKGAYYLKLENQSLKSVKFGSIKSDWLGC

[2] = target: T2, human MMP-9 catalytic domain (MMP-9CAT) (human, UniProt P14780 107-215; P14780 391-443)
T2 construct: Matrix metalloproteinase 9 (MMP-9), human, catalytic domain, residues 107-215 (first stretch; residues 216-390 left out); Matrix metalloproteinase 9 (MMP-9), human, catalytic domain, residues 391-443 (second stretch)
T2 chain (looked up): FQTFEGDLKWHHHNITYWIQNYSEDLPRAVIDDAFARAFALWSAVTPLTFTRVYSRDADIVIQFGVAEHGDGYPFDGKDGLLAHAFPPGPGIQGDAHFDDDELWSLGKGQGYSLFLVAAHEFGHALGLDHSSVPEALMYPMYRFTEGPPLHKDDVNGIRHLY

[3] = target: T3, human MMP-14 catalytic domain (MMP-14CAT) (human, UniProt P50281 112-292)
T3 construct: Matrix metalloproteinase 14 (MMP-14), human, catalytic domain, residues 112-292

Ki [1]: 0.233 nM
Ki [2]: 0.322 nM
Ki [3]: 0.711 nM
B1: N-TIMP2 (N-terminal domain of TIMP2) (domain or fragment, human, UniProt P16035 27-153, looked up)
chain: CSCSPVHPQQAFCNADVVIRAKAVSEKEVDSGNDIYGNPIKRIQYEIKQIKMFKGPEKDIEFIYTAPSSAVCGVSLDVGGKKEYLIAGKAEGDGKMHITLCDFIVPWDTLSTTQKKSLNHRYQMGCE
notes: numbers count on: the mature protein (Cys1 is the N-terminus); Cloned in the vector pMECS; also called wild-type N-TIMP2; parental N-TIMP2; source: E. coli WK6, periplasmic extract, purified (Ni-NTA)
